Laboratory results: article PMC5037814

Legend:
[1] = target: recombinant bovine Casq1 (non-glycosylated) (bovine (B. taurus)); test: crystal structure; high-Ca2+ form: protein incubated with 5 mM Ca2+ before mixing (2.5 mM in the drop); hanging drop, 4 °C, 0.1 M HEPES, 0.2 M NaCl, 27.5% MPD, pH 7.0
[2] = target: recombinant bovine Casq1 (non-glycosylated) (bovine (B. taurus)); test: SEC-MALS; 50 µM Casq1 on Yarra 3u SEC-2000, 20 mM MOPS, 300 mM KCl, 0.05 g/dL NaN3, pH 7.2, 2 mM CaCl2
[3] = target: native bovine Casq1 (skeletal muscle calsequestrin, glycosylated) (bovine (B. taurus)); test: crystal structure; high-Ca2+ form: protein incubated with 5 mM Ca2+ before mixing (2.5 mM in the drop); hanging drop, 4 °C, 0.1 M HEPES, 0.2 M NaCl, 27.5% MPD, pH 7.0
[4] = target: native bovine Casq1 (skeletal muscle calsequestrin, glycosylated) (bovine (B. taurus)); test: SEC-MALS; 50 µM Casq1 on Yarra 3u SEC-2000, 20 mM MOPS, 300 mM KCl, 0.05 g/dL NaN3, pH 7.2, 1 mM CaCl2
[5] = target: native bovine Casq1 (skeletal muscle calsequestrin, glycosylated) (bovine (B. taurus)); test: SEC-MALS; 50 µM Casq1 on Yarra 3u SEC-2000, 20 mM MOPS, 300 mM KCl, 0.05 g/dL NaN3, pH 7.2, 2 mM CaCl2

Row | stoichiometry N [1] | stoichiometry N [2] | stoichiometry N [3] | stoichiometry N [4] | stoichiometry N [5] | Substance
1 | 6 | 2 |  |  |  | recombinant bovine Casq1 (non-glycosylated) (natural protein)
2 |  |  | 6 | 2 | 4 | native bovine Casq1 (skeletal muscle calsequestrin, glycosylated) (natural protein)
